In patent US20180230200A1 (CITY OF HOPE, published 2018):

T1: UL128 expressed from MVA in BHK-21 cells (human cytomegalovirus, UniProt P16837 28-171)
T1 construct: whole, on cells
T1 sequence: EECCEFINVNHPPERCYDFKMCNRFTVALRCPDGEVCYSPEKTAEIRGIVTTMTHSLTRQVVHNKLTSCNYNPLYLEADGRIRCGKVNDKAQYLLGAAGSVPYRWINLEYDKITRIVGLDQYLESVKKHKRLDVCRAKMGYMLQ

B1: 2-80 (antibody, V domains shown)
VH: QIQLVQSGPELKKPGETVKISCKASGYTFTNFGMNWVKQAPGKGLKWMGWINTYTGEPTYADDFKGRFAFSLETSASTASLQINNLKNEDTATYFCARRGDGLYSMDYWGQGTSVTVSS
VL: DIVLTQSPASLAVSLGQRATISCRASESIDSYGNSFMYWYQQKPGQPPKLLIYRASNLESGIPARFSGSGSRTDFTLTINPVEADDVATYYCQQSNEDPLTFGAGTKLELK
notes: also called NAb 2-80
B2: 21E9 (antibody, V domains shown)
VH: QIQLVQSGPELKKPGETVKISCKASGYTFTIYGMNWVKQAPGKGLKWMGWINTYTGEPTYADDFRGRFAFSLETSASTAYLQINNLKNEDTATYFCARKGYYGSSGYFDYWGQGTTLTVSS
VL: SIVMTQTPKFLLVSAGDRVTITCKASQSVSNDVSWYQQKPGQSPKLLIYYASNRYTGVPDRFTGSGYGTDFTFTISTVQAEDLAVYFCQQDYSSPWTFGGGTKLEIK
notes: also called NAb 21E9
B3: 62-11 (antibody, V domains shown)
VH: QVQLQQPGAELVRPGASVKLSCKASGYTFTSYWMNWVKQRPGQGLEWIGMIDPSDSETHYNQMFKDKATLTVDKSSSTAYMQLSSLTSEDSAVYYCSNGYSSFAYWGQGTLVTVSV
VL: DVQMTQTTSSLSASLGDRVTISCSASQGISNYLNWYQQKPDGTVKLLIYDTSSLHSGVPSRFSGSGSGTDYSLTISNLEPEDIATYYCQQYSKLPYTFGGGTKLEIK
notes: also called NAb 62-11
B4: 62-100 (antibody, V domains shown)
VH: B3 VH
VL: DIVLTQSPATLSVTPGDSVSLSCRASQSISNNLHWYQQKSHESPRLLIKYASQSISGIPSRFSGSGSGTDFTLSINSVETEDFGKYVCQQSNSWPLTFGSGTKLEIK
notes: also called NAb 62-100

Columns and labels:
[1] = biological target: T2, gH/gL/UL128/UL130/UL131A pentamer complex expressed from MVA-PC in BHK-21 cells (human cytomegalovirus, UniProt P12824 24-743; P16832 31-278; P16837 28-171; P16772 1-214; F5HET4 19-129); test: FC competition, MVA-PC BHK-21; unlabelled row Ab; competitor: biotinylated 62-11; note: test concentration or dose not given here
T2 construct: whole, on cells

[2] = biological target: T2, gH/gL/UL128/UL130/UL131A pentamer …; test: FC competition, MVA-PC BHK-21; unlabelled row Ab; competitor: biotinylated AP86; note: test concentration or dose not given here
[3] = biological target: T2, gH/gL/UL128/UL130/UL131A pentamer …; test: FC competition, MVA-PC BHK-21; unlabelled row Ab; competitor: biotinylated 18F10
[4] = biological target: T2, gH/gL/UL128/UL130/UL131A pentamer …; test: FC competition, MVA-PC BHK-21; unlabelled row Ab; competitor: biotinylated 21E9; note: test concentration or dose not given here
[5] = biological target: T3, UL128/UL130 co-expressed from MVA in BHK-21 cells (human cytomegalovirus, UniProt P16837 28-171; P16772 1-214); test: intracellular FC, MVA-infected BHK-21
T3 construct: whole, on cells

[6] = biological target: T4, UL130 expressed from MVA in BHK-21 cells (human cytomegalovirus, UniProt P16772 1-214); test: intracellular FC, MVA-infected BHK-21
T4 construct: whole, on cells

[7] = biological target: T5, UL128/UL131A co-expressed from MVA in BHK-21 cells (human cytomegalovirus, UniProt P16837 28-171; F5HET4 19-129); test: intracellular FC, MVA-infected BHK-21
T5 construct: whole, on cells

[8] = biological target: T6, UL131A expressed from MVA in BHK-21 cells (human cytomegalovirus, UniProt F5HET4 19-129); test: intracellular FC, MVA-infected BHK-21
T6 construct: whole, on cells

[9] = biological target: T7, UL130/UL131A co-expressed from MVA in BHK-21 cells (human cytomegalovirus, UniProt P16772 1-214; F5HET4 19-129); test: intracellular FC, MVA-infected BHK-21
T7 construct: whole, on cells

[10] = biological target: T1, UL128 expressed from MVA in BHK-21 cells; test: intracellular FC, MVA-infected BHK-21
[11] = biological target: T8, UL128/UL130/UL131A co-expressed from MVA in BHK-21 cells (human cytomegalovirus, UniProt P16837 28-171; P16772 1-214; F5HET4 19-129); test: intracellular FC, MVA-infected BHK-21
T8 construct: whole, on cells

gH of HCMV strain TB40/E = gH of HCMV strain TB40/E (human cytomegalovirus strain TB40/E); test: cell-based or functional assay
gH of HCMV strain TR = gH of HCMV strain TR (human cytomegalovirus strain TR); test: cell-based or functional assay
[12] = biological target: T2, gH/gL/UL128/UL130/UL131A pentamer …; test: FC competition, MVA-PC BHK-21; unlabelled row Ab; competitor: biotinylated 2-80; note: test concentration or dose not given here
[13] = biological target: T2, gH/gL/UL128/UL130/UL131A pentamer …; test: FC, biotinylated NAb titrated on MVA-PC-infected BHK-21 (cell surface PC)

Row | Binder | Binding Inhibition (%) [1] | Binding Inhibition (%) [2] | Binding Inhibition (%) [3] | Binding Inhibition (%) [4] | binding result [5] | binding result [6] | binding result [7] | binding result [8] | binding result [9] | binding result [10] | binding result [11] | IC50, inhibition of TB40/E cell-to-cell spread in ARPE-19 (gH of HCMV strain TB40/E) | IC50, neutralization of TB40/E infection of ARPE-19 (gH of HCMV strain TB40/E) | IC50, neutralization of TB40/E infection of CTB (gH of HCMV strain TB40/E) | IC50, neutralization of TB40/E infection of HUVEC (gH of HCMV strain TB40/E) | IC50, neutralization of TB40/E infection of MRC-5 (gH of HCMV strain TB40/E) | IC50, inhibition of TR cell-to-cell spread in ARPE-19 (gH of HCMV strain TR) | IC50, neutralization of TR infection of ARPE-19 (gH of HCMV strain TR) | IC50, neutralization of TR infection of HUVEC (gH of HCMV strain TR) | IC50, neutralization of TR infection of MRC-5 (gH of HCMV strain TR) | other results
1 | B1 | 43% | 0% | 0% | 100% | no binding | no binding | no binding | no binding | no binding | no binding | no binding | > 400 µg/mL | 1.43 µg/mL | > 50 µg/mL | 1.41 µg/mL | 1.6 µg/mL | 398 µg/mL | 2.12 µg/mL | 2.54 µg/mL | 1.72 µg/mL | Binding Inhibition (%) [12]: 100%; EC50 [13]: 2.8 nM
2 | B2 | 32% | 0% | 0% | 100% | no binding | no binding | no binding | no binding | no binding | no binding | no binding | 157 µg/mL | 1.41 µg/mL | 42.4 µg/mL | 2.37 µg/mL | 5.78 µg/mL | 262 µg/mL | 0.926 µg/mL | 2.92 µg/mL | 4.14 µg/mL | Binding Inhibition (%) [12]: 100%; EC50 [13]: 18 nM
3 | B3 | 100% | 0% | 0% | 46% | no binding | no binding | no binding | no binding | no binding | no binding | no binding | 87 µg/mL | 0.185 µg/mL | 2.76 µg/mL | 0.102 µg/mL | 0.182 µg/mL | 395 µg/mL | 0.641 µg/mL | 0.83 µg/mL | 3.35 µg/mL | Binding Inhibition (%) [12]: 54%; EC50 [13]: 1.7 nM
4 | B4 | 100% | 0% | 0% | 51% | no binding | no binding | no binding | no binding | no binding | no binding | no binding | 103 µg/mL | 0.27 µg/mL | 3.62 µg/mL | 0.156 µg/mL | 0.293 µg/mL | 337 µg/mL | 2.13 µg/mL | 1.03 µg/mL | 1.98 µg/mL | Binding Inhibition (%) [12]: 57%; EC50 [13]: 3.3 nM
